Laboratory results from patent US20200239586A1 (LA TROBE UNIVERSITY, published 2020).
Read-outs that look alike come from different tables or passages of the source. Ends that are not written are not given here. * marks the point of attachment. Biotin = O=C1N[C@H]2[C@H](CS[C@H]2CCCCC(=O)*)N1

How the values were obtained:
human Fn14 [1] = target: T1, human Fn14 (human, UniProt Q9NP84 28-129); experiment: cell-based or functional assay
T1 sequence: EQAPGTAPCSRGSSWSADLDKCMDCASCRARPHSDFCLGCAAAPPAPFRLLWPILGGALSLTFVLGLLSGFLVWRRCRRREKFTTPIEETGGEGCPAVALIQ

human Fn14 [2] = target: T1, human Fn14; experiment: cell-based or functional assay; remark: listed apart in the source
[3] = target: T2, synthetic peptide hFn14 sub-domain 1p (human, biotin on the added C-terminal lysine); experiment: ELISA on biotinylated synthetic peptide
T2 construct: synthesised by GLBiochem
T2 peptide: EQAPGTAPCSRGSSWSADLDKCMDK
Method: (§1) Peptides representing sub-domains 1p, 2 and 3 of hFn14 (FIG. 20, Panels B and C and FIG. 14, Panel A) and for disulfide pair mutants (Cys3&6ΔS and Cys4&5ΔS; FIG. 20 Panels D and E) were synthesized by GLBiochem Ltd. (Shanghai, China) and the cysteine residues for disulfide bonds were chosen as described in the solution structure by He et al., (2009). An additional lysine residue was added to the C-terminus in order to attach a biotin moiety and to enable the peptides to bind to neutravidin coated plates (Pre-blocked; Pierce). For these experiments, a control peptide with a biotin at the C-terminus was used as a negative control and isotype control antibodies were also used.
(§2) The ELISA was performed essentially according to the manufacturer's recommended protocol (Pierce). Briefly, peptide was coated onto wells (in duplicate) at 1-10 μg/ml for 2 hours at room temperature. Wells were washed in PBS/0.05% Tween 20/0.1% BSA 3 times and dilutions of each antibody were added in wash buffer for 1 hour with gentle agitation. After another three washes anti-mouse HRP-conjugated to horse radish peroxidase (HRP; Chemicon) was added at 1/1000 dilution for 1 hour shaking. Finally, after 4 further washes the plate was developed using TMB (3,3′,5,5′-tetramethylbenzidine) substrate (Pierce), and the reaction was stopped using 2M H2SO4 solution. Optical density at 450 nm was quantified using a Spectromax absorbance spectrophotometer.

[4] = target: T3, synthetic peptide hFn14 sub-domain 2 (human, biotin on the added C-terminal lysine; disulfide bonds as in the solution structure of He et al. 2009); experiment: ELISA on biotinylated sub-domain 2 peptide, mAb at 5 ng/ml
T3 construct: also called sub-domain 2 peptide
T3 peptide: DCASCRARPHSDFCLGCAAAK
Excerpt: FIG. 21B is a graphical representation showing reactivity of anti-Fn14 mAbs CRCBT-06-001, CRCBT-06-002, CRCBT-06-003, CRCBT-06-004, CRCBT-06-005, CRCBT-06-006, CRCBT-06-007 and ITEM-1 with a synthetic peptide representing sub-domain 2 of Fn14. Plates were coated with sub-domain 2 peptide and various dilutions of antibody were allowed to bind, bound antibody was detected with anti-mouse HRP and TMB substrate. The average of duplicate readings are plotted, error bars represent standard deviations. The ELISA was repeated to ensure consistent results. The vertical line at 5 ng/ml within the linear part of the curves is the point at which a comparison of the reactivity of each mAb was analyzed.
as §1
The ELISA was performed essentially according to the manufacturer's recommended protocol (Pierce). Briefly, peptide was coated onto wells (in duplicate) at 1-10 μg/ml for 2 hours at room temperature. Wells were washed in PBS/0.05% Tween 20/0.1% BSA 3 times and dilutions of each antibody were added in wash buffer for 1 hour with gentle agitation. After another three washes anti-mouse HRP-conjugated to horse radish peroxidase (HRP; Chemicon) was added at 1/1000 dilution for 1 hour shaking. […] Optical density at 450 nm was quantified using a Spectromax absorbance spectrophotometer.

[5] = target: T4, synthetic peptide hFn14 sub-domain 3 (human, cysteine pairing not given here); experiment: ELISA on biotinylated sub-domain 3 peptide, mAb at 0.2 ug/ml
T4 construct: also called sub-domain 3 peptide
T4 peptide: ASCRARPHSDFCLGK(Biotin)
Method: An additional lysine residue was added to the C-terminus in order to attach a biotin moiety and to enable the peptides to bind to neutravidin coated plates (Pre-blocked; Pierce). For these experiments, a control peptide with a biotin at the C-terminus was used as a negative control and isotype control antibodies were also used.
as §2
The reactivity of CRCBT-06-001 CRCBT-06-002, CRCBT-06-003, CRCBT-06-004, CRCBT-06-005, CRCBT-06-006 and CRCBT-06-007 with sub-domain 3 was lower than for sub-domain 2, indicating this region may be a partial epitope for these antibodies. However, the differences in binding to this region could reveal subtle variations in the contact regions of the antibodies with hFn14. The order of binding from strongest to weakest was CRCBT-06-005, CRCBT-06-002, CRCBT-06-001, CRCBT-06-006, CRCBT-06-007 and ITEM-1. The relative binding of each antibody to sub-domain 3 at a single point in the linear region of the curves was measured at 0.2 µg/ml (FIG. 21C). […] This could indicate the epitope of ITEM-1 may differ slightly to the CRCBT antibodies based on weaker interaction with surface exposed residues in sub-domain 3.

[6] = target: T5, phage-displayed hFn14 extracellular domain (human, UniProt Q9NP84 28-77); experiment: phage ELISA, antibody on plate, 10-fold phage dilutions
T5 construct: also called FN14 Ectodomain; FN14 Ecto
Method: Each normalized preparation was 10-fold serially diluted and added in solution to the MAbs attached to the solid phase. ELISAs shown here were performed simultaneously with the same preparations of phage. Binding was detected using HRP-conjugated anti-M13 phage polyclonal IgG and TMB substrate. Optical density at 450 nm was quantified using a Spectramax spectrophotometer. Error bars for each dilution represent the standard deviation of duplicate assays. […] ELISAs were performed under similar conditions to those described for Panel A. Methods according to Epitope mapping using phage expressed Fn14—Method 1.
The wells of Maxisorp immunoplates (Nunc) were coated overnight at 4° C. with the target monoclonal antibodies or recombinant Tweak-Fc at a concentration of 2 μg/mL in PBS. MAb 5G8 was used as a negative control for ELISA plates coated with tested antibodies. Recombinant Fc alone was used as a negative control for ELISA plates coated with recombinant Tweak-Fc. […] 10-fold serial dilutions of phage were made using 5% skim milk/PBS solution in 2 ml-well microtiter plates and phage dilutions were added to the coated, blocked ELISA plates for 1 hr, with vigorous shaking at room temperature. Phage were subsequently removed from the wells and the ELISA plates were washed 4× with PBS/0.05% Tween 20. […]

[7] = target: T6, Histidine tagged hFn14 extracellular domain, bacterially expressed (human, UniProt Q9NP84 28-77); experiment: ELISA on coated His-tagged protein
T6 construct: also called recombinant Fn14; recombinant human Fn14; not shown: (His)6 tag from pET-15b

[8] = target: T5, phage-displayed hFn14 extracellular …; experiment: phage ELISA, antibody on plate, 10-fold phage dilutions; remark: listed apart in the source
Method: Each normalized preparation was 10-fold serially diluted and added in solution to the MAbs attached to the solid phase. All ELISAs shown were performed simultaneously with the same preparations of phage. Binding was detected using HRP-conjugated anti-M13 phage polyclonal IgG and TMB substrate. Optical density at 450 nm was quantified using a Spectramax spectrophotometer. Error bars for each dilution represent the standard deviation of duplicate assays. In this figure, reference to “FN14 Ecto” is a reference to the extracellular domain of hFn14. Methods according to Epitope mapping using phage expressed Fn14—Method 1.
The wells of Maxisorp immunoplates (Nunc) were coated overnight at 4° C. with the target monoclonal antibodies or recombinant Tweak-Fc at a concentration of 2 μg/mL in PBS. MAb 5G8 was used as a negative control for ELISA plates coated with tested antibodies. Recombinant Fc alone was used as a negative control for ELISA plates coated with recombinant Tweak-Fc. […] 10-fold serial dilutions of phage were made using 5% skim milk/PBS solution in 2 ml-well microtiter plates and phage dilutions were added to the coated, blocked ELISA plates for 1 hr, with vigorous shaking at room temperature. […] Optical density at 450 nm was quantified using a Spectramax absorbance spectrophotometer.

[9] = target: T7, Histidine tagged mouse Fn14 extracellular domain (mouse, UniProt Q9CR75 28-80); experiment: ELISA with purified His-tagged mouse Fn14; x axis 'Log (c)' without unit, µg/ml by the legend
T7 construct: extracellular domain; also called mFn14; not shown: (His)6 tag from pET-15b
T7 sequence (looked up): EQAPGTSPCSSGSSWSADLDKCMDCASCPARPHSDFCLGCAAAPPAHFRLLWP

[10] = target: T8, His tagged hFn14 extracellular region mutant R56P (human, UniProt Q9NP84 28-77); experiment: ELISA with purified His-tagged hFn14 R56P; x axis 'Log (c)' without unit, µg/ml by the legend
T8 construct: also called R56P mutant; not shown: (His)6 tag

[11] = target: T9, His tagged hFn14 extracellular region mutant R56A (human, UniProt Q9NP84 28-77); experiment: ELISA with purified His-tagged hFn14 R56A; x axis 'Log (c)' without unit, µg/ml by the legend
T9 construct: not shown: (His)6 tag

[12] = target: T10, His tagged hFn14 extracellular region mutant R56K (human, UniProt Q9NP84 28-77); experiment: ELISA with purified His-tagged hFn14 R56K; x axis 'Log (c)' without unit, µg/ml by the legend
T10 construct: not shown: (His)6 tag

[13] = target: T11, synthetic peptide Sub-domain 2 Cys 3&6 ΔS (human, not fully specified; biotin on the added C-terminal lysine); experiment: peptide ELISA: biotinylated synthetic peptide on neutravidin plate, antibody titrated (legend: 0.1-0.0001 µg/ml; axis 'Log (c)'), anti-mouse HRP, TMB, OD 450 nm
T11 construct: also called sub-domain 2 cys3&6ΔS mutant
T11 peptide: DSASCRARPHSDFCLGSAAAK

B1: CRCBT-06-007 (antibody, IgG2b, V domains shown)
VH: QVKLEESGGVLVQPGGSMKLSCIASGFSFSKYWMNWVRQSPEKGLEWVAEIRVKSNNYATHYAESVKGRFIISRDDSKSSVYLQMNNLRAEDTGIYYCTKSYADYFDYWGQGTTLTVSS
VL: DIVMTQSTASLAVSLGQRATISCRASQSVSTSSYSYMHWYQQKPGQPPKVLIKYASNLESGVPARFSGSGSGTDFTLNIHPVEEEDAATYYCQHSWEIPYTFGGGTKLEIKR
NFκB-GFP reporter in HEK293T cells (human Fn14 [1]): 1 µg/mL | % Agonist, IL-8 secretion by A375 cells (human Fn14 [2]): 16% | % Antagonist, IL-8 secretion by A375 cells (human Fn14 [2]): 89% | binding result [3]: no binding | % decrease in binding compared to CRCBT-06-001 and CRCBT-06-002 [4]: 48% | % decrease in binding compared with CRCBT-06-005 [5]: 73% | binding result [6]: binds

B2: CRCBT-06-005 (antibody, IgG2b, V domains shown)
VH: QVQLQESGGGLVQPGGSMKLSCVASGFTFSYYWMNWVRQSPEQGLEWIAEIRLQSNDYPTHYAESVKGRFTISRDDSKNSVYLQMNNLRPEDTGIYYCACRYADYFDHWGQGTTLTVSS
VL: DIVLTQTTASLTVSLGQRATISCRASQSVSTSTYSYMHWYQQTPGQPPTVLIKYASSLESGVPTRFSGSGSGTDFTLNIHPVEEEDTATYYCQHSWEIPYTFGGGTKLEIKR
NFκB-GFP reporter in HEK293T cells (human Fn14 [1]): 1 µg/mL | % Agonist, IL-8 secretion by A375 cells (human Fn14 [2]): 26% | % Antagonist, IL-8 secretion by A375 cells (human Fn14 [2]): 92% | binding result [7]: binds | binding result [3]: no binding | % decrease in binding compared to CRCBT-06-001 and CRCBT-06-002 [4]: 40% | binding result [8]: binds | binding result [9]: binds | binding result [10]: binds | binding result [11]: binds | binding result [12]: binds | binding result [13]: binds

B3: CRCBT-06-006 (antibody, IgG2a, V domains shown)
VH: QVQLQESGGGLVQPGGSMKLSCVASGFTFSYYWMNWVRQSPEQGLEWIAEIRLQSNDYPTHYAESVKGRFTISRDDSKNSVYLQMNNLRPEDTGIYYCACRYADYFDHWGQGTTLTVSS
VL: DIVITQSPASLTVSLGQRATISCRASQSVSTSTYSYMHWYQQTPGQPPTVLIKYASSLESGVPTRFSGSGSGTDFTLNIHPVEEEDTATYYCQHSWEIPYTFGGGTKLEIKR
NFκB-GFP reporter in HEK293T cells (human Fn14 [1]): 1 µg/mL | % Agonist, IL-8 secretion by A375 cells (human Fn14 [2]): 106% | binding result [3]: no binding | % decrease in binding compared to CRCBT-06-001 and CRCBT-06-002 [4]: 76% | % decrease in binding compared with CRCBT-06-005 [5]: 73% | binding result [8]: binds
